Reference: patent US20090215686A1

Biological target: Met on MDCK (Madin-Darby canine kidney) cells (canine) (UniProt Q75ZY9)
Test: cell-based or functional assay

Row | Substance | concentration at which agonistic activity is seen (MDCK colony scatter)
1 | NK1 version of the receptor-binding mutant K1M (E195A:R197A:Y198A) (from UniProt P14210 28-209) (ligand) | > 10 nM
2 | NK1 version of the receptor-binding mutant K1N (E159A:S161A:E195A:R197A:Y198A) (from UniProt P14210 28-209) (ligand) | 100 nM
